Four substances from patent publication US10004792B2, “Peptides and combination of peptides for use in immunotherapy against various cancers” (immatics biotechnologies GmbH, priority 2015, dated 2018) can be followed below.

In the first experiment the target is HLA-A*02 (Homo sapiens, UniProt P04439, D140Y/D185E/D98H/E176V/E277Q/G131W/G231S/I119V/I121R/I166T/I218V/L300P/N151K/N90K/P208A/P217A/Q86G/Q94H/R138H/R169H). Nature of the experiment: MHC binding assay (UV-ligand exchange, beta2m ELISA), HLA-A*02. The conditions noted are these: peptide exchange yield, binding to HLA-A*02, UV-ligand exchange, β2m ELISA. From the text:
Candidate peptides for T cell based therapies according to the present invention were further tested for their MHC binding capacity (affinity). The individual peptide-MHC complexes were produced by UV-ligand exchange, where a UV-sensitive peptide is cleaved upon UV-irradiation, and exchanged with the peptide of interest as analyzed. Only peptide candidates that can effectively bind and stabilize the peptide-receptive MHC molecules prevent dissociation of the MHC complexes. To determine the yield of the exchange reaction, an ELISA was performed based on the detection of the light chain (β2m) of stabilized MHC complexes. The assay was performed as generally described in Rodenko et al. (Rodenko et al., 2006).
96 well MAXISorp plates (NUNC) were coated over night with 2 ug/ml streptavidin in PBS at room temperature, washed 4× and blocked for 1 h at 37° C. in 2% BSA containing blocking buffer. Refolded HLA-A*02:01/MLA-001 monomers served as standards, covering the range of 15-500 ng/ml. Peptide-MHC monomers of the UV-exchange reaction were diluted 100 fold in blocking buffer. Samples were incubated for 1h at 37° C., washed four times, incubated with 2 ug/ml HRP conjugated anti-62m for 1 h at 37° C., washed again and detected with TMB solution that is stopped with […]. Absorption was measured at 450 nm. Candidate peptides that show a high exchange yield (preferably higher than 50%, most preferred higher than 75%) are generally preferred for a generation and production of antibodies or fragments thereof, and/or T cell receptors or fragments thereof, as they show sufficient avidity to the MHC molecules and prevent dissociation of the MHC complexes.
On the technique in general: An ELISA detects its analyte on a solid surface through an enzyme-linked reagent.
As to “12 (GLLPLLHRA; listed as Homo sapiens) [compound 12]”, the Peptide exchange result was “++++ (>=75% = ++++)”.

Take “249 (GLCERLVSL; listed as Homo sapiens) [compound 249]”: the Peptide exchange result is on record as “++++ (>=75% = ++++)”.

Take “4 (KLMPGTYTL; listed as Homo sapiens) [compound 4]”: the Peptide exchange result is reported as “++++ (>=75% = ++++)”.

With “153 (FISERVEVV; listed as Homo sapiens) [compound 153]”, the Peptide exchange result was “++++ (>=75% = ++++)”.

The test system of the next experiment is CD8+ T cells. Nature of the experiment: In vitro immunogenicity: T-cell priming with aAPCs loaded with peptide/MHC and anti-CD28, multimer staining. In kind it is cell-based, human. The conditions noted are these: in vitro immunogenicity of HLA class I peptides; peptide-specific multimer staining after aAPC priming of CD8+ T cells. From the text:
In order to obtain information regarding the immunogenicity of the TUMAPs of the present invention, the inventors performed investigations using an in vitro T-cell priming assay based on repeated stimulations of CD8+ T cells with artificial antigen presenting cells (aAPCs) loaded with peptide/MHC complexes and anti-CD28 antibody.
In order to perform in vitro stimulations by artificial antigen presenting cells loaded with peptide-MHC complex (pMHC) and anti-CD28 antibody, the inventors first isolated CD8+ T cells from fresh HLA-A*02 leukapheresis products via positive selection using CD8 microbeads (Miltenyi Biotec, Bergisch-Gladbach, Germany) of healthy donors obtained from the University clinics Mannheim, Germany, after informed consent.
PBMCs and isolated CD8+ lymphocytes were incubated in T-cell medium (TCM) until use consisting of RPMI-Glutamax (Invitrogen, Karlsruhe, Germany) supplemented with 10% heat inactivated human AB serum (PAN-Biotech, Aidenbach, Germany), 100 U/ml Penicillin/100 μg/ml Streptomycin (Cambrex, Cologne, Germany), 1 mM sodium pyruvate (CC Pro, Oberdorla, Germany), 20 µg/ml Gentamycin (Cambrex). 2.5 ng/ml IL7 (PromoCell, Heidelberg, Germany) and 10 U/ml IL-2 (Novartis Pharma, Nurnberg, Germany) were also added to the TCM at this step.
Generation of pMHC/anti-CD28 coated beads, T-cell stimulations and readout was performed in a highly defined in vitro system using four different pMHC molecules per stimulation condition and 8 different pMHC molecules per readout condition.
The purified co-stimulatory mouse IgG2a anti human CD28 Ab 9.3 (Jung et al., 1987) was chemically biotinylated using Sulfo-N-hydroxysuccinimidobiotin as recommended by the manufacturer (Perbio, Bonn, Germany). Beads used were 5.6 μm diameter streptavidin coated polystyrene particles (Bangs Laboratories, Illinois, USA).
pMHC used for positive and negative control stimulations were A*0201/MLA-001 (peptide […] (SEQ ID NO. 303) from modified Melan-A/MART-1) and A*0201/DDX5-001 ([…] from DDX5, SEQ ID NO. 304), respectively.
800.000 beads/200 μl were coated in 96-well plates in the presence of 4×12.5 ng different biotin-pMHC, washed and 600 ng biotin anti-CD28 were added subsequently in a volume of 200 μl. Stimulations were initiated in 96-well plates by co-incubating 1×10^6 CD8+ T cells with 2×10^5 washed coated beads in 200 μI TCM supplemented with 5 ng/ml IL-12 (PromoCell) for 3 days at 37° C. Half of the medium was then exchanged by fresh TCM supplemented with 80 U/ml IL-2 and incubating was continued for 4 days at 37° C. This stimulation cycle was performed for a total of three times. For the pMHC multimer readout using 8 different pMHC molecules per condition, a two-dimensional combinatorial coding approach was used as previously described (Andersen et al., 2012) with minor modifications encompassing coupling to 5 different fluorochromes. Finally, multimeric analyses were performed by staining the cells with Live/dead near IR dye (Invitrogen, Karlsruhe, Germany), CD8-FITC antibody clone SK1 (BD, Heidelberg, Germany) and fluorescent pMHC multimers. For analysis, a BD LSRII SORP cytometer equipped with appropriate lasers and filters was used. Peptide specific cells were calculated as percentage of total CD8+ cells. Evaluation of multimeric analysis was done using the FlowJo software (Tree Star, Oreg., USA). In vitro priming of specific multimer+CD8+ lymphocytes was detected by comparing to negative control stimulations.
On to “12 (GLLPLLHRA; listed as Homo sapiens) [compound 12]”, for which the “Wells positive [%]” value is on record as “++++ (>=70% = ++++)”.

“249 (GLCERLVSL; listed as Homo sapiens) [compound 249]”: the “Wells positive [%]” value is “+ (<20% = +)”.

Regarding “4 (KLMPGTYTL; listed as Homo sapiens) [compound 4]”, the “Wells positive [%]” value is “+ (<20% = +)”.
